Paper PMC6135800, “STAT3-coordinated migration facilitates the dissemination of diffuse large B-cell lymphomas” (Nature Communications, 2018)

Biological target: T1, FLAG-RhoGDI-γ (immobilized) (UniProt Q99819 1-225)
T1 construct: RhoGDIγ, full-length cDNA NM_001176 inserted into pFLAG-CMV2
T1 sequence (looked up): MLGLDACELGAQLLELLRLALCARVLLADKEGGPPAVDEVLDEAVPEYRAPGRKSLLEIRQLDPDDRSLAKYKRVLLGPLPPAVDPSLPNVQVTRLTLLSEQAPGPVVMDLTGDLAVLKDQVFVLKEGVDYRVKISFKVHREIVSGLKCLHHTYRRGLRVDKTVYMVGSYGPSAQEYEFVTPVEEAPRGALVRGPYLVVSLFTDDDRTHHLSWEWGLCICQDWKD
Experiment: pull-down; competition assay: purified GST-RhoH and RhoA incubated with immobilized FLAG-RhoGDI-γ for 2 h; increasing doses of RhoH
Conditions: both partners purified

B1: GST-RhoH (natural protein, UniProt Q15669 1-191, looked up)
chain: MLSSIKCVLVGDSAVGKTSLLVRFTSETFPEAYKPTVYENTGVDVFMDGIQISLGLWDTAGNDAFRSIRPLSYQQADVVLMCYSVANHNSFLNLKNKWIGEIRSNLPCTPVLVVATQTDQREMGPHRASCVNAMEGKKLAQDVRAKGYLECSALSNRGVQQVFECAVRTAVNQARRRNRRRLFSINECKIF
notes: RhoH; the only GST vector named is pEBG-RhoH, made by inserting full-length cDNAs (RhoH: NM_001278369); also called GST-tagged RhoH; source: E. coli DH5α, IPTG induction, purified (glutathione-Sepharose, eluted with reduced glutathione)
  binding result: binds
